Measurements from patent US20260049138A1 (Chugai, published 2026).

Target: T1, CD3ε homodimer protein (human, UniProt P07766 23-126, limits assumed)
T1 construct: also called CD3 (CD3ε)
Assay: SPR Biacore T200, CD3ε homodimer on chip;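 further: Light-chain single-residue variant antibodies injected over amine-coupled CD3ε homodimer on a CM4 chip at 25 °C, bound amount divided by that of the GLS3000-containing antibody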

T1 sequence (P07766 23-126 limits assumed): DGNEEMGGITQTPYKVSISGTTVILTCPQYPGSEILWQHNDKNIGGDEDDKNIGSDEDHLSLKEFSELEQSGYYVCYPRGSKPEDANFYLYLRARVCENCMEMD

| Binder | ratio of amount bound vs unaltered GLS3000 |
| --- | --- |
| GLS3000 Q93E one-arm antibody (antibody, human IgG1, kappa, L234A L235A, N297A, name in Kabat numbering) heavy: QVQLVESGGGVVQPGRSLRLSCAASGFTFSNAWMHWVRQAPGKGLEWVAQIKAKSNNYATYYAESVKGRFTISRDDSKNSLYLQMNSLKTEDTAVYYCRYVHYGAYYGVDAWGQGTTVTVSSASTKGPSVFPLAPSSKSTSGGTAALGCLVKDYFPEPVTVSWNSGALTSGVHTFPAVLQSSGLYSLSSVVTVPSSSLGTQTYICNVNHKPSNTKVDKKVEPKSCDKTHTCPPCPAPEAAGGPSVFLFPPKPKDTLMISRTPEVTCVVVDVSHEDPEVKFNWYVDGVEVHNAKTKPREEQYASTYRVVSVLTVLHQDWLNGKEYKCKVSNKALPAPIEKTISKAKGQPREPQVYTLPPSRCELTKNQVSLSCAVKGFYPSDIAVEWESNGQPENNYKTTPPVLDSDGSFFLVSKLTVDKSRWQQGNVFSCSVMHEALHNHYTQKSLSLSPDYKDDDDK EPKSSDKTHTCPPCPAPELLGGPSVFLFPPKPKDTLMISRTPEVTCVVVDVSHEDPEVKFNWYVDGVEVHNAKTKPREEQYNSTYRVVSVLTVLHQDWLNGKEYKCKVSNKALPAPIEKTISKAKGQPREPQVCTLPPSRDELTKNQVSLWCLVKGFYPSDIAVEWESNGQPENNYKTTPPVLDSDGSFFLYSKLTVDKSRWQQGNVFSCSVMHEALHNRYTQKSLSLSP light: DIVMTQSPLSLPVTPGEPASISCRSSQSLVHSNRNTYLHWYQQKPGQAPRLLIYKVSNRFSGVPDRFSGSGSGTDFTLKISRVEAEDVGVYYCGQGTEVPYTFGQGTKLEIKRTVAAPSVFIFPPSDEQLKSGTASVVCLLNNFYPREAKVQWKVDNALQSGNSQESVTEQDSKDSTYSLSSTLTLSKADYEKHKVYACEVTHQGLSSPVTKSFNRGEC | 0.75 |
| GLS3000 Q93R one-arm antibody (antibody, human IgG1, kappa, L234A L235A, N297A, name in Kabat numbering) heavy: QVQLVESGGGVVQPGRSLRLSCAASGFTFSNAWMHWVRQAPGKGLEWVAQIKAKSNNYATYYAESVKGRFTISRDDSKNSLYLQMNSLKTEDTAVYYCRYVHYGAYYGVDAWGQGTTVTVSSASTKGPSVFPLAPSSKSTSGGTAALGCLVKDYFPEPVTVSWNSGALTSGVHTFPAVLQSSGLYSLSSVVTVPSSSLGTQTYICNVNHKPSNTKVDKKVEPKSCDKTHTCPPCPAPEAAGGPSVFLFPPKPKDTLMISRTPEVTCVVVDVSHEDPEVKFNWYVDGVEVHNAKTKPREEQYASTYRVVSVLTVLHQDWLNGKEYKCKVSNKALPAPIEKTISKAKGQPREPQVYTLPPSRCELTKNQVSLSCAVKGFYPSDIAVEWESNGQPENNYKTTPPVLDSDGSFFLVSKLTVDKSRWQQGNVFSCSVMHEALHNHYTQKSLSLSPDYKDDDDK EPKSSDKTHTCPPCPAPELLGGPSVFLFPPKPKDTLMISRTPEVTCVVVDVSHEDPEVKFNWYVDGVEVHNAKTKPREEQYNSTYRVVSVLTVLHQDWLNGKEYKCKVSNKALPAPIEKTISKAKGQPREPQVCTLPPSRDELTKNQVSLWCLVKGFYPSDIAVEWESNGQPENNYKTTPPVLDSDGSFFLYSKLTVDKSRWQQGNVFSCSVMHEALHNRYTQKSLSLSP light: DIVMTQSPLSLPVTPGEPASISCRSSQSLVHSNRNTYLHWYQQKPGQAPRLLIYKVSNRFSGVPDRFSGSGSGTDFTLKISRVEAEDVGVYYCGQGTRVPYTFGQGTKLEIKRTVAAPSVFIFPPSDEQLKSGTASVVCLLNNFYPREAKVQWKVDNALQSGNSQESVTEQDSKDSTYSLSSTLTLSKADYEKHKVYACEVTHQGLSSPVTKSFNRGEC | 1.13 |
| GLS3000 Q93P one-arm antibody (antibody, human IgG1, kappa, L234A L235A, N297A, name in Kabat numbering) heavy: QVQLVESGGGVVQPGRSLRLSCAASGFTFSNAWMHWVRQAPGKGLEWVAQIKAKSNNYATYYAESVKGRFTISRDDSKNSLYLQMNSLKTEDTAVYYCRYVHYGAYYGVDAWGQGTTVTVSSASTKGPSVFPLAPSSKSTSGGTAALGCLVKDYFPEPVTVSWNSGALTSGVHTFPAVLQSSGLYSLSSVVTVPSSSLGTQTYICNVNHKPSNTKVDKKVEPKSCDKTHTCPPCPAPEAAGGPSVFLFPPKPKDTLMISRTPEVTCVVVDVSHEDPEVKFNWYVDGVEVHNAKTKPREEQYASTYRVVSVLTVLHQDWLNGKEYKCKVSNKALPAPIEKTISKAKGQPREPQVYTLPPSRCELTKNQVSLSCAVKGFYPSDIAVEWESNGQPENNYKTTPPVLDSDGSFFLVSKLTVDKSRWQQGNVFSCSVMHEALHNHYTQKSLSLSPDYKDDDDK EPKSSDKTHTCPPCPAPELLGGPSVFLFPPKPKDTLMISRTPEVTCVVVDVSHEDPEVKFNWYVDGVEVHNAKTKPREEQYNSTYRVVSVLTVLHQDWLNGKEYKCKVSNKALPAPIEKTISKAKGQPREPQVCTLPPSRDELTKNQVSLWCLVKGFYPSDIAVEWESNGQPENNYKTTPPVLDSDGSFFLYSKLTVDKSRWQQGNVFSCSVMHEALHNRYTQKSLSLSP light: DIVMTQSPLSLPVTPGEPASISCRSSQSLVHSNRNTYLHWYQQKPGQAPRLLIYKVSNRFSGVPDRFSGSGSGTDFTLKISRVEAEDVGVYYCGQGTPVPYTFGQGTKLEIKRTVAAPSVFIFPPSDEQLKSGTASVVCLLNNFYPREAKVQWKVDNALQSGNSQESVTEQDSKDSTYSLSSTLTLSKADYEKHKVYACEVTHQGLSSPVTKSFNRGEC | 0.25 |

Further lines, results first:

| ratio of amount bound vs unaltered GLS3000 | Binder |
| --- | --- |
| 0.96 | GLS3000 Q93S one-arm antibody (antibody, human IgG1, kappa, L234A L235A, N297A, name in Kabat numbering) heavy: QVQLVESGGGVVQPGRSLRLSCAASGFTFSNAWMHWVRQAPGKGLEWVAQIKAKSNNYATYYAESVKGRFTISRDDSKNSLYLQMNSLKTEDTAVYYCRYVHYGAYYGVDAWGQGTTVTVSSASTKGPSVFPLAPSSKSTSGGTAALGCLVKDYFPEPVTVSWNSGALTSGVHTFPAVLQSSGLYSLSSVVTVPSSSLGTQTYICNVNHKPSNTKVDKKVEPKSCDKTHTCPPCPAPEAAGGPSVFLFPPKPKDTLMISRTPEVTCVVVDVSHEDPEVKFNWYVDGVEVHNAKTKPREEQYASTYRVVSVLTVLHQDWLNGKEYKCKVSNKALPAPIEKTISKAKGQPREPQVYTLPPSRCELTKNQVSLSCAVKGFYPSDIAVEWESNGQPENNYKTTPPVLDSDGSFFLVSKLTVDKSRWQQGNVFSCSVMHEALHNHYTQKSLSLSPDYKDDDDK EPKSSDKTHTCPPCPAPELLGGPSVFLFPPKPKDTLMISRTPEVTCVVVDVSHEDPEVKFNWYVDGVEVHNAKTKPREEQYNSTYRVVSVLTVLHQDWLNGKEYKCKVSNKALPAPIEKTISKAKGQPREPQVCTLPPSRDELTKNQVSLWCLVKGFYPSDIAVEWESNGQPENNYKTTPPVLDSDGSFFLYSKLTVDKSRWQQGNVFSCSVMHEALHNRYTQKSLSLSP light: DIVMTQSPLSLPVTPGEPASISCRSSQSLVHSNRNTYLHWYQQKPGQAPRLLIYKVSNRFSGVPDRFSGSGSGTDFTLKISRVEAEDVGVYYCGQGTSVPYTFGQGTKLEIKRTVAAPSVFIFPPSDEQLKSGTASVVCLLNNFYPREAKVQWKVDNALQSGNSQESVTEQDSKDSTYSLSSTLTLSKADYEKHKVYACEVTHQGLSSPVTKSFNRGEC |
| 0.86 | GLS3000 R24A one-arm antibody (antibody, human IgG1, kappa, L234A L235A, N297A, name in Kabat numbering) heavy: QVQLVESGGGVVQPGRSLRLSCAASGFTFSNAWMHWVRQAPGKGLEWVAQIKAKSNNYATYYAESVKGRFTISRDDSKNSLYLQMNSLKTEDTAVYYCRYVHYGAYYGVDAWGQGTTVTVSSASTKGPSVFPLAPSSKSTSGGTAALGCLVKDYFPEPVTVSWNSGALTSGVHTFPAVLQSSGLYSLSSVVTVPSSSLGTQTYICNVNHKPSNTKVDKKVEPKSCDKTHTCPPCPAPEAAGGPSVFLFPPKPKDTLMISRTPEVTCVVVDVSHEDPEVKFNWYVDGVEVHNAKTKPREEQYASTYRVVSVLTVLHQDWLNGKEYKCKVSNKALPAPIEKTISKAKGQPREPQVYTLPPSRCELTKNQVSLSCAVKGFYPSDIAVEWESNGQPENNYKTTPPVLDSDGSFFLVSKLTVDKSRWQQGNVFSCSVMHEALHNHYTQKSLSLSPDYKDDDDK EPKSSDKTHTCPPCPAPELLGGPSVFLFPPKPKDTLMISRTPEVTCVVVDVSHEDPEVKFNWYVDGVEVHNAKTKPREEQYNSTYRVVSVLTVLHQDWLNGKEYKCKVSNKALPAPIEKTISKAKGQPREPQVCTLPPSRDELTKNQVSLWCLVKGFYPSDIAVEWESNGQPENNYKTTPPVLDSDGSFFLYSKLTVDKSRWQQGNVFSCSVMHEALHNRYTQKSLSLSP light: DIVMTQSPLSLPVTPGEPASISCASSQSLVHSNRNTYLHWYQQKPGQAPRLLIYKVSNRFSGVPDRFSGSGSGTDFTLKISRVEAEDVGVYYCGQGTQVPYTFGQGTKLEIKRTVAAPSVFIFPPSDEQLKSGTASVVCLLNNFYPREAKVQWKVDNALQSGNSQESVTEQDSKDSTYSLSSTLTLSKADYEKHKVYACEVTHQGLSSPVTKSFNRGEC |
| 0.87 | GLS3000 Q93Y one-arm antibody (antibody, human IgG1, kappa, L234A L235A, N297A, name in Kabat numbering) heavy: QVQLVESGGGVVQPGRSLRLSCAASGFTFSNAWMHWVRQAPGKGLEWVAQIKAKSNNYATYYAESVKGRFTISRDDSKNSLYLQMNSLKTEDTAVYYCRYVHYGAYYGVDAWGQGTTVTVSSASTKGPSVFPLAPSSKSTSGGTAALGCLVKDYFPEPVTVSWNSGALTSGVHTFPAVLQSSGLYSLSSVVTVPSSSLGTQTYICNVNHKPSNTKVDKKVEPKSCDKTHTCPPCPAPEAAGGPSVFLFPPKPKDTLMISRTPEVTCVVVDVSHEDPEVKFNWYVDGVEVHNAKTKPREEQYASTYRVVSVLTVLHQDWLNGKEYKCKVSNKALPAPIEKTISKAKGQPREPQVYTLPPSRCELTKNQVSLSCAVKGFYPSDIAVEWESNGQPENNYKTTPPVLDSDGSFFLVSKLTVDKSRWQQGNVFSCSVMHEALHNHYTQKSLSLSPDYKDDDDK EPKSSDKTHTCPPCPAPELLGGPSVFLFPPKPKDTLMISRTPEVTCVVVDVSHEDPEVKFNWYVDGVEVHNAKTKPREEQYNSTYRVVSVLTVLHQDWLNGKEYKCKVSNKALPAPIEKTISKAKGQPREPQVCTLPPSRDELTKNQVSLWCLVKGFYPSDIAVEWESNGQPENNYKTTPPVLDSDGSFFLYSKLTVDKSRWQQGNVFSCSVMHEALHNRYTQKSLSLSP light: DIVMTQSPLSLPVTPGEPASISCRSSQSLVHSNRNTYLHWYQQKPGQAPRLLIYKVSNRFSGVPDRFSGSGSGTDFTLKISRVEAEDVGVYYCGQGTYVPYTFGQGTKLEIKRTVAAPSVFIFPPSDEQLKSGTASVVCLLNNFYPREAKVQWKVDNALQSGNSQESVTEQDSKDSTYSLSSTLTLSKADYEKHKVYACEVTHQGLSSPVTKSFNRGEC |
